According to paper PMC6504816:

Target: T1, YlxR (Bacillus subtilis) (UniProt P32728)
T1 sequence: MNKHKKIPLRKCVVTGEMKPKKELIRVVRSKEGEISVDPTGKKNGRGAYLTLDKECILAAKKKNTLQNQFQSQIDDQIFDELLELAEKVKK
Experiment: EMSA
Settings: 10 mM Tris-HCl pH 8.0, 100 mM KCl, 10 mM MgCl2, 1 mM DTT, 1 mM EDTA, 1 ug poly(dI-dC), 20 fmol probe in 20 ul, 15 min at 25 C; 6% native PAGE

Sequence	binding
CTGGATGATATGGCAGAGTGGGTGTACCAAATTAAATAAAAGAACTATTTTTCTCTTTATACATTCACAGGCCGCCGAGATGTTCTCGACAGCCTTTTATTTTTGACTGCTGCGTGCAGACCCGCATCAAAAGAAATAATTTCAAAATCATTTGCTTCAG (double strand) [PtrmK [-295/-135] M1]	binds
CTGGATGATATGGCAGAGTGGGTGTCAAAAATTAAATAAAAGAACTATTTTTCTCTTTATACATTCACAGGCCGCCGAGATGTTCTCGACAGCCTTTTATTTTTGACTGCTGCGTGCAGACCCGCATCAAAAGAAATAATTTCAAAATCATTTGCTTCAG (double strand) [PtrmK [-295/-135] Wt]	binds
GGATATTCCAGCAAAATTCGATAAACTAGGAAGAGCACAAATAGGCATAAGCAGGGTTGAAAGGAGGTTTTGGTTC (double strand) [PthiL [-76/-1] Wt]	binds
GGATATTCCATACCAATTCGATAAACTAGGAAGAGCACAAATAGGCATAAGCAGGGTTGAAAGGAGGTTTTGGTTC (double strand) [PthiL [-76/-1] M1]	binds more weakly
